Holding throughout (experiment): NMR titration
In test [1] the target is T1, Wzc_(CDΔC,ΔCys,Leu505Cys) (E. coli (K-12), UniProt P76387 447-704, Cys544Ser | Cys563Ser | Leu505Cys).
T1 sequence: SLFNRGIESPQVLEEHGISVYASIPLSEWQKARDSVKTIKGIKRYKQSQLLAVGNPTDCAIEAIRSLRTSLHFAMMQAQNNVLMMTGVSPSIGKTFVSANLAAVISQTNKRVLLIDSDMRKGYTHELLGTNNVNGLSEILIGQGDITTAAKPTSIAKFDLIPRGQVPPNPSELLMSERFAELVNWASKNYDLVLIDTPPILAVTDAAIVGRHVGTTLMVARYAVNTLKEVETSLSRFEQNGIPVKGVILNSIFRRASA

For test [2], the target named is T2, Wzc_(CDΔC,ΔCys,Ser516Cys) (E. coli (K-12), UniProt P76387 447-704, Cys544Ser | Cys563Ser | Ser516Cys).
T2 sequence: T1 sequence with C59L, S70C

For test [3], the target named is T3, Wzc_(CDΔC,ΔCys,Lys556Cys) (E. coli (K-12), UniProt P76387 447-704, Cys544Ser | Cys563Ser | Lys556Cys).
T3 sequence: T1 sequence with C59L, K110C

Test [4] addresses T4, Wzc_(CDΔC,ΔCys,Val466Cys) (E. coli (K-12), UniProt P76387 447-704, Cys544Ser | Cys563Ser | Val466Cys).
T4 sequence: T1 sequence with V20C, C59L

Test [5] addresses T5, Wzc_(CDΔC,ΔCys,Gln523Cys) (E. coli (K-12), UniProt P76387 447-704, Cys544Ser | Cys563Ser | Gln523Cys).
T5 sequence: T1 sequence with C59L, Q77C

Test [6] has as its target T6, Wzc_(CDΔC,ΔCys) (Cys544Ser/Cys563Ser) (E. coli (K-12), UniProt P76387 447-704, Cys544Ser | Cys563Ser).
T6 sequence: T1 sequence with C59L

As usually defined, the Kd is the concentration at which binding is half-saturated.

Where a chain is given by its changes, count along the chain named.

B1: full-length E. coli (K-12) Wzb, wild type (enzyme)
chain: MFNNILVVCVGNICRSPTAERLLQRYHPELKVESAGLGALVGKGADPTAISVAAEHQLSLEGHCARQISRRLCRNYDLILTMEKRHIERLCEMAPEMRGKVMLFGHWDNECEIPDPYRKSRETFAAVYTLLERSARQWAQALNAEQV
Regarding B1, the Kd was found to be 43.8 ± 1.3 µM in test [1]; 11.3 ± 0.7 µM in test [2]; 7.3 ± 0.4 µM in test [3]; 8.9 ± 0.3 µM in test [4]; 16.9 ± 0.5 µM in test [5]; 15.2 ± 0.6 µM in test [6].

Values taken from PMC9245664 (Proceedings of the National Academy of Sciences of the …, 2022).
